Key:
[1] = system: K4 kissing-loop RNA reporter; test: apparent KD of K4 kissing-loop reporter; higher = weaker reporter binding; settings: Eterna round: R107;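 further: bound reporter read as fluorescence of individual clusters on recovered sequencing chips by microscopy, with normalized cluster intensities fitted with a binding model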
Experimental: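 RNA-MaP round R107: designed RNA switches with theophylline, tryptophan, arginine or FMN aptamers are transcribed on-chip within common flanks. They are titrated with a labelled K4 kissing-loop RNA reporter in RNA-MaP buffer (100 mM Tris pH 7.5, 80 mM KCl, 4 mM MgCl2), without ligand or with the indicated ligand. Median apparent KD per design.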

[2] = system: MS2 coat protein; test: apparent KD of MS2 coat protein; designed switch direction (-1 OFF switch, 1 ON switch): -1; higher = weaker reporter binding; settings: Eterna round: R95; input ligand: microRNA oligo, concentration not stated
In short: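 SNAP-549-labelled MS2 coat protein was titrated, doubling from 0.7 or 1.5 nM to 3 µM, over designed RNA switches transcribed on Illumina chips by stalled E. coli RNA polymerase. Runs were done without input, with 200 uM small-molecule ligand, or with an oligonucleotide input. Apparent KD is the per-design median over clusters of curve-fitted normalised fluorescence.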

[3] = input ligand: theophylline 20 uM
[4] = input ligand: tryptophan 2.4 mM

| Sequence | apparent KD of K4 kissing-loop reporter ([1]; input ligand: FMN 200 uM) [nM] | apparent KD of K4 kissing-loop reporter ([1]; input ligand: arginine 13.2 mM) [nM] | apparent KD of K4 kissing-loop reporter ([1]; input ligand: none) [nM] | apparent KD of K4 kissing-loop reporter [1, 3] [nM] | apparent KD of K4 kissing-loop reporter [1, 4] [nM] | apparent KD of MS2 coat protein [2] [nM] |
| --- | --- | --- | --- | --- | --- | --- |
| AAAACUCGGUAGUGAUGUUAUUGAGUGAACAAGGAUAUCUAUGAUAAGAGAAGGUGUAAGUUAAGCGUAUUUCGGCCUGUACAAU [theeternabot_sameState_KL_FMN_A_34] | 115 | 101 | 114 | 106 | 103 | – |
| AAAAUAAACUAGUGAUGUUGGUGUCCAGAUACCAGCGACGAAAGUCGCCCUUGGCAGCUGUGGACGUACAAAAUAAGUACGUCCU [MatMod 21 - Jieux - Same State - Theophylline A] | 319 | 183 | 345 | 198 | 289 | – |
| AAAAUAAAUAGCAGUCACGGAGUGAUGUUCCGAGGACCGGUACGGCCGCCACUCGACCAGACAAAGUCUGGAGGCGGAGACUGCA [#SwitchBubble 20 #K4Early] | 166 | 176 | 193 | 187 | 162 | – |
| AAAAUAAAUCAGUGAUGUUGGUAUCUGGAUACCAGCGAUAAUCAUCGCCCUUGGCAGCCAUGGACGUACAAAAUAAGUACGUCCU [MatMod 17 - Jieux - Same State - Theophylline A] | 242 | 157 | 180 | 228 | 193 | – |
| AAAAUAACCCAGUGAUGUUGGUAUCCAGAUACCAGCGACGAAAGUCGCCCUUGGCAGCUGUGGACGUACAAAAUAAGUACGUCCU | 903 | 395 | 403 | 545 | 612 | – |
| AAAAUAAGCCAGUGAUGUUGGUGUCCAGAUACCAGCGACGAAAGUCGCCCUUGGCAGCUGUGGACGUACAAAAUAAGUACGUCCU | 1030 | 760 | 1140 | 957 | 1120 | – |
| AAAAUAAUCCAGUGAUGUUGGUAUACAGAUACCAGCGACGAAAGUCGCCCUUGGCAGCUGUGGACGUACAAAAUAAGUACGUCCU | 934 | 972 | 1210 | 592 | 813 | – |
| AAAAUUAAGGCCGAAUUAACUUCUUGCAUACGAGGACCGGUACGGCCGCCACUCGAGUCAAGUGAUGUUUGACAAUCUAUUAUUA [JR_ExcTryptoA_Sub010] | 81.2 | 124 | 110 | 138 | 128 | – |
| AAAAUUGCGGUCGAAAGAACUUCUUGCAUACGAGGACCGGUACGGCCGCCACUCGAGUCAAGUGAUGUUUGAUAAUCUAUUAUUA [JR_ExcTryptoA_Sub012] | 151 | 225 | 215 | 296 | 212 | – |
| AAACAUCACUGGGAGUGAUGUUCUCAGUGACGAGGACCGGUACGGCCGCCACUCGCGAGAGAUAUAGUCAAGUAAUGACUGCAUU [Excl Tryptophan A V9] | 365 | 309 | 407 | 375 | 413 | – |
| AAACAUUGGUCGGAUACCAGUUAGACCGAUAGGUCAAAACUGGAGUGAUGUUCCUAAAAUAACCCUUGGCAGCCGACCGAUGAAA [MAT - Same State Theophlline B - Mod of Eli - D5] | 954 | 599 | 787 | 905 | 808 | – |
| AAACAUUGGUCUGAUACCAGCUGAUCGGAAACGAUCUUGCUGGAGUGAUGUUCCAGGAAAAGCCCUUGGCAGCAGACCGAUGAAA [MAT - Same State Theophlline B - Mod of Eli - D24] | 938 | 513 | 1030 | 715 | 962 | – |
| AAACAUUGGUCUGAUACCAGUUAGACCGAUAGGUCAAAACUGGAGUGAUGUUCCUAAAAUAACCCUUGGCAGCAGACCGAUGAAA [MAT - Same State Theophlline B - Mod of Eli - D4] | 3640 | 285 | 596 | 439 | 552 | – |
| AAACGUUGGUGCGAUACCAGCUGAUCGGAAACGAUCUUGCUGGAGUGAUGUUCCAGGAAAAGCCCUUGGCAGCGCACCGACGAAA [MAT - Same State Theophlline B - Mod of Eli - D26] | 950 | 659 | 1060 | 869 | 928 | – |
| AAAGAUCUUCUAGAAACUAGAAGAUCAAGAGAGGAUAUCCGAAUUCGGAGAAGGCUCGCUAAGUGAUGUUUGGACCCAAAGGGAA [AK3.1 SS FMN A] | 1100 | 984 | 1180 | 753 | 1130 | – |
| AAAGUGUCAGCACGAGUGAUGUUCGACGAUACCAGCCUCGAUAGAGGCCCUUGGCAGCGUAAACCAAGGGCUGGCACAAAAUAAA [#SwitchBubble 6 #K4Early] | 1050 | 975 | 1350 | 439 | 1360 | – |
| AAAUAUUCGAGUGAUGUUCGAUAAAUAUCAGAGGAUAUGCUUAAAAGCAGAAGGCUGUAUUUCUAUUUGUUAUGUAAUUUUAUAA [JR_SSFMNA_Sub021] | 125 | 160 | 135 | 154 | 91.4 | – |
| AAAUGACAAGUAAUAAAGAAAAGCGGCGAUACCAGUAAGAACGUAUACCCUUGGCAGCGCAUAUUAGAGUGAUGUUCUAAUCCGA [theeternabot_sameState_KL_Theo_A_25] | 129 | 174 | 148 | 220 | 99.3 | – |
| AACGCUGGAUGAAUAACAUCUAGCGAAAUUCGAGGACCGGUACGGCCGCCACUCGAGCUAACUGCGAGUGAUGUUCGAUAAUAAA [Mat - Mod of OpenEnded 3 - D5] | 228 | 466 | 327 | 469 | 71.4 | – |
| AACUGUCAAGGACAACAUUACUGCAGUGAUACCAGCAUCGAAAGAUGCCCUUGGCAGCACCAACUUGCAGUGAUGUUGCAAGUAA [BrourdMod 5 - Jieux - Exclusion - Theophylline A] | 241 | 203 | 216 | 188 | 220 | – |

| Sequence | apparent KD of K4 kissing-loop reporter ([1]; input ligand: FMN 200 uM) [nM] | apparent KD of K4 kissing-loop reporter ([1]; input ligand: arginine 13.2 mM) [nM] | apparent KD of K4 kissing-loop reporter ([1]; input ligand: none) [nM] | apparent KD of K4 kissing-loop reporter [1, 3] [nM] | apparent KD of K4 kissing-loop reporter [1, 4] [nM] | apparent KD of MS2 coat protein [2] [nM] |
| --- | --- | --- | --- | --- | --- | --- |
| AACUUAAUUUAUAAGCAGUGAUGUUGCUCACGAGGACCGGUACGGCCGCCACUCGAUCGGACUUAGGUCUUCAAUUAUUUCAUUA [JR_ExcTryptoA_Sub017] | 149 | 192 | 163 | 199 | 145 | – |
| AAGAGCUAGGCGGCCGCCACUAGUUGUGAACACGUACAAGCCAGUGAUGUUGGUAUGAUGGACGGUAGGACCGGGCCUAGCUGAA [Exclusion - Tryptophan B (Freestyle 14)] | 227 | 271 | 276 | 267 | 294 | – |
| AAGCAGUCACUCGACGCCAUCGAAGAUGGGCGAGGACCGGUACGGCCGCCACUCGGAGUGAUGUUCUGAUGACUGCAAAAUAAAA [MatMod 8 - Jieux - Exclusion - Tryptophan A] | 119 | 52.7 | 118 | 156 | 94.3 | – |
| AAGGCAUUCAGAAGGAGCGUGGUUUAAUCAUUAAUAUUUUUUACGAGUGAUGUUCGUAAUUCACAGGUAGGUCGCUGAAUAAUAA [JR_ExcArginiB_Sub008] | 123 | 136 | 128 | 134 | 114 | – |
| AAGGCCAGUGAUGUUGGCUUAACCUUCGAUACCAGAACCGAUCGUUUCCCUUGGCAGCGAACACAAUACCUCACAGCGUUAAGUA [theeternabot_sameState_KL_Theo_A_8] | 125 | 134 | 125 | 149 | 114 | – |
| AAGGCGUCGAGUUUGGUGGCGCCAACAGAUACCAGAUUACCUCCAAUCCCUUGGCAGCUGGCUUGAGAGUGAUGUUUUCAAAAGU [theeternabot_sameState_KL_Theo_A_33] | 532 | 447 | 627 | 528 | 349 | – |
| AAGGGCUAGGCGGCCGCCACUGGUUGUGAACACAUACGAGCCAGUGAUGUUGGUAUUGUGUGCGGCAGGACCGGGCCUAGCCGAA [Exclusion - Tryptophan B (Freestyle 23)] | 360 | 299 | 346 | 300 | 322 | – |
| AAGGUAUCACCAACUUGUAACAUAGGUGAUACCAGCAUCGAAAGAUGCCCUUGGCAGCACCAACUUGCAGUGAUGUUGCAAGUAA [(T)'-(H)'-(T1)-(T2)-(H1)-(H2)_Design11] | 166 | 140 | 152 | 152 | 144 | – |
| AAGGUCACCACUACAGUGAUGUUGUAGGAGCAGGAUAUGCAGAAAUGCAGAAGGGCUCGCUCCAGGUGACCGAAUGAAACAUUCA [Omei KL FMN A SS A v4] | 217 | 341 | 382 | 325 | 381 | – |
| AAGGUCACUGCUACAGUGAUGUUGUGGGAGCAGGAUAUGCAGAAAUGCAGAAGGGCUCGCUCCAGGUGACCGAAUGAAACAUUCA [whbob_SS_FMNA__2th175] | 1070 | 826 | 1500 | 887 | 1000 | – |
| AAGGUUGUGCAUGGGAGUGAUGUUCCCAAGCAGGAUAUCGCUCACGCGAGAAGGGCUAGCACAACCGCUCAAGAAACUUGAGCAA [Omei KL FMN A SS C v5] | 121 | 118 | 147 | 132 | 120 | – |
| AAGUACACGAUAGUGUACACCUAGUGAUGUUAGGAUAUGCAGAUAUGCAGAAGGAACGAGUCAUCUGACAAUAGUCGGAUGACAA [FmnAX 8 #OpenEnded #K4Early] | 564 | 70.2 | 100 | 103 | 82.4 | – |
| AAGUCUCGUUAAUUCGAGGUUGCGAUCGAUACCAGUAGCGAGAGGUACCCUUGGCAGCGAAGUGAGUGAUGUUCAUGAAAGAAGA [KL-XTheoA13] | 59.8 | 101 | 107 | 113 | 68.6 | – |
| AAGUGUCAUUAGACACACUGAUGUAUAAACUAGGAUAUGCUGAUAAGCAGAAGGAGUGAUGUUCCUUUCAACAUCAGAAUUAAAU [KL-XFMN-A1] | 270 | 145 | 155 | 153 | 126 | – |
| AAGUGUGUGGCGGCCGCCACUAGAAUCCAGUGAUGUUGGAGAUAUCUCGUAAGAGAUAUCCGCCAUAGGACCGGGCCAUAUAGAA [Same State - Tryptophan B (Freestyle 15)] | 981 | 720 | 1260 | 413 | 771 | – |
| AAGUGUGUGGCGGCCGCCACUAGAAUCCAGUGAUGUUGGAGUAAUCAAAUAAAUGAUAAUCAACAUAGGACCGGGCCAUAUAGAA [Same State - Tryptophan B (Freestyle 3)] | 345 | 307 | 349 | 351 | 309 | – |
| AAGUGUGUGGCGGCCGCCACUAGGAUCCAGUGAUGUUGGAGAUAUCUCGUAAGAGAUAUCCGCCAUAGGACCGGGCCAUAUAGAA [Same State - Tryptophan B (Freestyle 16)] | 862 | 423 | 388 | 161 | 176 | – |
| UUUUUGUGAGGAUAUUAGUAGUAAAAAAAUAAAAUUACUACUGAGAAGGCACAUGAGGAUCACCCAUGUUCCUC [salish99_ex4_r3_040] (puzzle: Exclusion 4) | – | – | – | – | – | 34.9 |
| UUUUUGUGAGGAUAUUAGUAGUAAAUAAAUAAAAUUACUACUGAGAAGGCACAUGAGGAUCACCCAUGUUCCUC [salish99_ex4_r3_068] (puzzle: Exclusion 4) | – | – | – | – | – | 33.2 |
